assay: soluble on expression in E. coli; label from the status in PepcDB or PDB records

| Sequence | soluble on expression in E. coli |
| --- | --- |
| MDLTKLTFESVFGGSDVPMKPSRSEDNKTPRNRTDLEMFLKKTPLMVLEEAAKAVYQKTPTWGTVELPEGFEMTLILNEITVKGQATSKKAARQKAAVEYLRKVVEKGKHEIFFIPGTTKEEALSNIDQISDKAEELKRSTSDAVQDNDNDDSIPTSAEFPPGISPTENWVGKLQEKSQKSKLQAPIYEDSKNERTERFLVICTMCNQKTRGIRSKKKDAKNLAAWLMWKALEDGIESLESYDMVDVIENLEEAEHLLEIQDQASKIKDKHSALIDILSDKKRFSDYSMDFNVLSVSTMGIHQVLLEISFRRLVSPDPDDLEMGAEHTQTEEIMKATAEKEKLRKKNMPDSGPLVFAGHGSSAEEAKQCACKSAIIHFNTYDFTD | not soluble |
| MSSSIPRVYSLGNSAMTYLLALRIAQLPSQPKVPSVVLLLNDQKKLNRFLNNDSKIIVKSSNNNKETYHRQFMASCVPPILSNGEIAPIENLIVSDPSSKFITAQLSKYNKSLRPETNILFLNPSLNLLEHLHRYRWRFDEARPNLFMGFTTPVDVGTIHQEFQLSLKVKGRIQFHIAKIDGFPRMSSTGKSASLSLRGDRQKNEKENNAFYKLFREISRLRSGIGSDLVSFDLHVHGFQDLFFTELEKLILESCTEPLLAVYDCVYKKELLKIPGAQDIIKKLISEQLSIIDRSYPSLNTNPNYSVIFDKERIFSLVMRDLEVNGHKRAKLAQSLNQLNQTNINELNGFFVSLGKYKKCNCKWNDILLTLIKGKQFITKQKALDYHYL | soluble |
| MGSSHHHHHHSSGLVPRGSHMASKNVSIIGSPLAAGQPLGGVQLACDDLRKLGLHNVIDVLGWKYEDIGNIDNGDNEMKQEKKTNNYINNNDNNNDNNNDNNNDNNNNCYIPNGVIKEKKHDLSNNKMNGYVNHNFYGNYEENNVISTNDKYKNNCYYDNIRNIKEIGIFSKNLFDTMSNELRKKNFVLNIGGDHGVAFSSILSSLQMYQNLRVIWIDAHGDINIPETSPSGNYHGMTLAHTLGLFKKKVPYFEWSENLTYLKPENTAIIGIRDIDAYEKIILKKCNINYYTIFDIEKNGIYNTICTALEKIDPNSNCPIHISLDIDSVDNVFAPGTGTVAKGGLNYREINLLMKILAETKRVVSMDLVEYNPSLDEVDKKVHGDSLPILDNATKTGKLCLELIARVLGYDIV | soluble |
| MFPSGHNEKWTRGYQRENSLLHHDDEFRSFQRRTDCPQHFYQQTNGYEHSLFGEKAGFHEASAQNLLMHLASQISPMEFAKLQLELLASQNKQRPHRGAGFGSYLMSPPATVSSSRSTVLCCNPAPPYASHCQSPAASDDFGHHFGSFDSMSAYNFHNNNQQQRREAHVSRDGKSFDQGNIYTAEDVHTVVKNHRNENNQRVVSNKVFVGGISHMMNRKIINKFFGQFGTVFVDWPVKQKPNSRGKSIAIGSYSYLFLVYSDEQSVIKLMSACHRNSQNDFFVSVPGFRDMIQIRPWFIYNGFYILEKARHNRIIDIHRTVFLGGLPRIVTAEEIAQMFSEFGVVLLVTIDIDQDYGYPKGAARVTFERDSAFNRALEKKFLKFDNIDSSKTMIEIKPYVMEDVGCDECGGLWFNPFLSIYDHLKCAKDDHQKEQKMAEIKNFNMWSSRSPFSLNSGDGHDDLITKMDAGFKKNCNLACTYSNRENEKNETEMGARKFLEMVKSFGLEKEKTVTVNGNEYPIGPDLWDKFLPAPKYDVGTEPVRMNPEAKLQQFLRMKRTNVYSNKSAYCKEAPCRQYYCPSCSNKLHSGPNQHTLLPAG | soluble |
| MERLQKVIARAGIASRRKAEELILQGRVKVNGRVVKELGVKVGPRDDVEVDGIPIEREEPVYYLLYKPRGVISSVKDDRGRKVVTDFFKDLDKRIYPIGRLDYDTSGLLLLTNDGDFANLLMHPRYEIEKVYIAKVKGIPTHEQLKRLEQGVQLEDGMTAPAKVKLLSADRKKGTAIVEIRIHEGRNRQVRRMFEAIGCEVLKLKRERYAFLDLKGLRPGEYRELTPHEVKLLRVLAQSGGRK | soluble |
| MSLEAKMEQIYQQIADTLVNIVPEEWKQILLYAEYREGYKKIFFYYYPETRIKPVYSLDITDLFHMNEDKYHELENKLYHCFSRLWEEFKEQEQQQWTNLTYTLDNTGRMKINYGYEDLFELSPVEKQEKWEAEYLEQEIEEGHHHHHH | soluble |
| MGSDKIHHHHHHMSKIVVLGAGPAGCSAGYHLAKSGHKVMLIDKDCFPRDKTCGDGISLGSVQALSTMGIYPDDIKRLASEYAQIDGFLLGVSNEISHLCPTELKGYCIPRFVFDNLLYQKAINAGCVARTQRISDIEGYHQELYSDFDYIIDARGVYAGEANAIAIRAYWSIKVADFPKIYLSKAQIYFDKAFGVNGYGWIFPVAVDSELVKLNVGVGVWLDEYQKNNTNIIRLFNEFVQRNQATKQLLSLVVSQQKPKAYPLATAKRANTVSYGKVFKIGDAANLTDPLTGEGIANAILSGLYVTQAINMSTSPELASENWQRLYQLYFEPDLDAGLQIKSFRKFSFINKLLIWLMNRNKPFAEQVTYTFAGLIPYKKLLP | not soluble |
| MYRIIEAPNSGKYPFSHSLLIGKSCIIDTGSGEALAPLRVDCVLNTHWHEDHIAMNSIGRKVLAHPLDAEAIESYEEFRRRYGIGDSVRLFINFEFGQVDDVFEDGEQLEFEGVSVEVIHTPGHSAGHCCFVINNEAVFLGDIDLTSFGPWYGCLDCDVDDFVRSVKKMMREVERRDIEIAIPSHGRPVYGKEEIIGAMREYLKKIFERDKAIRELVRLGVDPVGKGIIYRKIPEPREIYLHFEKIMVEKHLTTSLDEFCLDLEHHHHHH | not soluble |
| MGSDKIHHHHHHMEKILLVDDEQFVLDGLKRQLRRKYAIHTADGGEKGLQLIQSDGPFAVVVSDMRMPEMNGIEFLTQVRRVAPDSIRIMLTGYADQKTAINAINEGAIFRFLTKPCSLENLTVALDAALDQYRLITAEKELLEKTLKGSIKVLVDILSLSAPAAFSQATRLRKYAAQIVARLEFPDSWQYEIAALLSSIGFVNIPPETITKHLIGEKLTGREQEMIDAVPETAGMLLANIPRLSAVALMINRQNTPCSEPTAFKNGDFHEAVRIGANLLKVLTDFDILLIRNYEPEEAIRIMSERIGLYDRTLLNMLAILDLPRRDQGVRNIRIDDLREGMIIDADIRNTHGILVVPKGYEVNESTCQRLKNFLIRQTGAETVRVLMPVYAEEESQ | not soluble |
| MLSRNIGAVRGAHKAATTKPVEKVAKLGNGLTVGTIDSHKPIAHLVLAFRAGSRYEKANQAGLSHTIRNFVGRDTQEYFGNTVVWTLSQTGGVLKSFTSRDLFGVSLTIPRESTSVGLSVLGQVAGNPGFKPWEVEDVLPTMRADNGYRTAYDLVVDQIHKAAYRNGGLGNSIYAPCSKIGSICTSTLSSFAEQHFVTGNGVLFATNAVHDDLLLYGDNHAPIRSGNAASPSSSAYKGGEVRRDADSKYAHVIVAGEGAAGNNTKALATQAVLLTALGNSSPVKFNTGTTGVIAKAVGQNGSASAFQAVHADSGLAGVYLVVEGSQANQAVSNVVGALKSLKVADIEAVKKQAFNNALRASAHSDNFAIERASQLFQSQDNYIQQIPNVSASDVEVAAKKLTTKLSLASYGNVSEVPYVDTL | not soluble |
| MSDMYDKINELYDRRREIELGGGDEKIEQQHAKGKLTARERIDLLLDEGTFVELNPFIEHRCTDFGLGEKKGPGDGVVTGYGKINGRTVFVFSQDFTVFGGALGEMHAKKITNIMDLAAKTGAPVIGLNDSGGARIQEGVLSLDGYGHIFYRNAIYSGVIPQISVIMGPCAGGAVYSPAITDFVFMVEKTSQMFITGPKVIEAVTGEKISAEDLGGARVHNTISGNAHFAAANEEEALAEVRRLLGYLPSNNNEKPPFGPIPDGDDYRPDLADVVPIDAVRPYDVRHVIAQVVDDGSFMEVQKDFAKNIVIGFARIKGEVVGLVCNQPKFMAGGLDIDSSDKAARFIRFCDSFNIPIITFEDVTGFFPGVKQEHGGIIRHGAKILYAYSEATVPKITVILRKAYGGAYVALNSKSIGADVVYAWPNAEVAVMGPQGAANIIFAGEIEKSPNPEETRAQKIAEYREKFANPYVAAKYGMIDDVIDPRDTRIKLIQALEMLRNKHEERPKKKHGNIPL | not soluble |
